In US20040106557A1:

Target: Prostate specific antigen (PSA), purified from human seminal fluid (human) (UniProt P07288)
Test: gel filtration peak of ~30 kD after thrombin cleavage, GST-peptide IFMA on PSA captured by MAb 5E4

- Binding activity (% of total), remaining after thrombin-treatment: 5.2%
Substance: ~30 kD component of thrombin-cleaved GST-C-4 (from UniProt P08515 1-218)
